Measurements: patent US20060058231A1

B1: 492 (ligand)
BMP-7 mature domain: STGGKQRSQNRSKTPKNQEALRMASVAENSSSDQRQACKKHELYVSFRDLGWQDWIIAPEGYAANYCEGECAFPLNSHMNATNHAIVQTLVHFINPETVPKPCCAPTQLNAISVLYFDDSSNVILKKYRNMVVRACGCH
B2: 471 (ligand)
BMP-7 mature domain: STGGKQRSQNRSKTPKNQEALRMASVAENSSSDQRQACSKHELYVSFRDLGWQDWIIAPEGYAAYYCEGECAFPLNSYMNATNHAIVQTLVHFINPETVPKPCCAPTQLNAISVLYFDDSSNVILKKYRDMVVRACGCH

Biological target: anti-BMP-7 antibodies of the commercial ELISA (R&D Systems ELISA Duoset Cat#DY354)
Assay: sandwich ELISA (R&D Systems BMP7 ELISA Cat#DY354), BMP-7 protein titrated, % ELISA signal; the EC50 column carries no unit, the concentration axis is in ug/mL

Binder | EC50 [ng/mL]
B1 | 1.74
B2 | 0.755
